Patent publication US20110059095A1 (Regeneron, published 2011)
Positions count from the first letter of the chain named. Where no end group is shown, it is not given here. The star is where a group is joined. Biotin = O=C1N[C@H]2[C@H](CS[C@H]2CCCCC(=O)*)N1

T1: Peptide B (human PAR-2), unbiotinylated (Human)
T1 construct: also called Peptide B No Biotin
T1 peptide: SLIGKVDGTSHVTG

T2: Peptide A (human PAR-2), unbiotinylated (Human)
T2 construct: also called Peptide A No Biotin
T2 peptide: GTNRSSKGRSLIGKVDGT

T3: Peptide C (human PAR-2), C-terminal biotinylated (Human)
T3 construct: also called Peptide C C-Term
T3 peptide: SLIGKVGGGGS-biotin

T4: Peptide A (human PAR-2), N-terminal biotinylated (Human, N-terminal biotin via G4S linker)
T4 construct: also called Peptide A N-Term
T4 peptide: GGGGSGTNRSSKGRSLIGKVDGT

T5: Peptide C (human PAR-2), N-terminal biotinylated (Human)
T5 construct: also called Peptide C N-Term
T5 peptide: Biotin-GGGGSSLIGKV

T6: Peptide B (human PAR-2), C-terminal biotinylated (Human, not fully specified)
T6 construct: also called Peptide B C-Term
T6 peptide: SLIGKVDGTSHVTGGGGGS-biotin

T7: Peptide B (human PAR-2), N-terminal biotinylated (Human)
T7 construct: also called Peptide B N-Term
T7 peptide: Biotin-GGGGSSLIGKVDGTSHVTG

B1: H2M588N (antibody, V domains shown)
VH: EVQLLESGGGLVQPGGSLRLSCAASGFTFSSYAMTWVRQAPGKGLYWVSAISGGRGSAYYADSVKGRFTISRDNSKNTLYLQMNSLRAEDTAVYYCAKEGDSGYDLAYWGRGTLVTVSS
VL: DIQMTQSPSSLSASVGDRVTITCRARQGISNNLAWLQQKPGKAPKSLIYAASSLQSGIPSKFSGSGSGTYFTLTISSLQPEDFATYYCQQYKSSPLTFGGGTKVEIK
notes: chimeric: human variable, mouse constant domains
B2: H2M618N (antibody, V domains shown)
VH: EVQLLESGGGLVQPGGSLRLSCAASGFTFRSYTMTWVRQAPGKGLDWVSGITDSGAGTYYGDSVKGRFTISRDNSKNTLYLQMNSLRAEDTAVYYCVKEGDSGYDLDYWGQGTLVTVSS
VL: B1 VL with R26S, N31T, N32Y, A51T, I58V, G66R, Y70D
notes: as for B1
B3: H2M589N (antibody, V domains shown)
VH: EVQLLESGGGLVQPGGSLRLSCATSGFTFSRYTMTWVRQAPGKGLFWVSGIGGSGGRAYYADSVKGRFTLSRDNSKNTLYLQMNSLRAEDTAVYYCAKEGDSGYDLDYWGRGTLVTVSS
VL: B1 VL with S7Y, N32Y, S56R, I58V, Y70D, F83S, S93I
notes: as for B1
B4: H2M591N (antibody, V domains shown)
VH: B3 VH
VL: B1 VL with S7Y, N32Y, S56R, I58V, Y70D, F83S, S93I
notes: as for B1
B5: H1M590N (antibody, V domains shown)
VH: EVQLVESGGGLVQPGRSLRLSCAASGFTFDDYAMHWVRQAPGKGLEWVSGITWNSGTMAYADSVKGRFTISRDNAKNSLYLQMNSLRAEDTALYYCAKENWAFDYWGQGTLVTVSS
VL: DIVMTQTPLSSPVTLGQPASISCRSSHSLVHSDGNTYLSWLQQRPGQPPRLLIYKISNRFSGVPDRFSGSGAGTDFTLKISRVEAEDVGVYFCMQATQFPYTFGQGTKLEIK
notes: as for B1

Molecular target: T8, full length human PAR-2 (human, UniProt P55085 26-397)
Experiment: cell-based or functional assay

T8 sequence (P55085 26-397 G138A limits assumed): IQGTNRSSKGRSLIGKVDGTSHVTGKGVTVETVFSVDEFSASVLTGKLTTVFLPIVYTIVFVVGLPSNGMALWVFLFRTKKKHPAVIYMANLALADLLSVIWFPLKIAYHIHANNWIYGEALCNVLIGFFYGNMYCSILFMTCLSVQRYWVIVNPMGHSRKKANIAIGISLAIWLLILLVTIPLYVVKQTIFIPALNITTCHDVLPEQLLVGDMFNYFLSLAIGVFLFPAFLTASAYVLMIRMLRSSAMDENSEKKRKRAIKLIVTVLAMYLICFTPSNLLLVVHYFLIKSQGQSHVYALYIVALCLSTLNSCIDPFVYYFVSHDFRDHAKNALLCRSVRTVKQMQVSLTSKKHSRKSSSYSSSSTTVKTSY

IC50, NF-kB-luciferase, 10 nM Human Trypsin 1 [nM] | IC50, NF-kB-luciferase, 10 nM Trypsin [nM] | IC50, NF-kB-luciferase, 20 nM Trypsin [nM] | IC50, NF-kB-luciferase, 30 nM Trypsin [nM] | IC50, NF-kB-luciferase, 75 nM Trypsin [nM] | IC50, NF-kB-luciferase, 200 nM Factor Xa [nM] | IC50, NF-kB-luciferase, 250 nM Trypsin [nM] | IC50, NF-kB-luciferase, 750 nM Lung Tryptase [nM] | Binder
165 | 10.4 | 26.8 | 33 | 5.7 | 45.3 | 2.3 | 1 | B1
154 | 12.4 | 70 |  | 7.8 | 54.2 | 6.6 | 7 | B2
 |  |  |  | 3.7 |  | 6.3 |  | B3
150 | 24.2 | 122 |  |  | 51.5 | 4.5 | 88.1 | B4

Molecular target: T1, Peptide B (human PAR-2), unbiotinylated
Experiment: SPR, antibody captured
Method: (§1) Equilibrium dissociation constants (KD values) for antigen binding to selected purified PAR-2 antibodies were determined by surface kinetics using a real-time surface plasmon resonance biosensor assay. Antibody was captured on either a rabbit anti-mouse IgG polyclonal antibody (GE Healthcare, Piscataway, N.J.) surface or a goat anti-human IgG polyclonal antibody (Jackson Immuno Research Lab, West Grove, Pa.) surface created through direct amine chemical coupling to a BIACORE™ CM5 sensor chip to form a captured antibody surface. […] Antigen-antibody binding and dissociation were monitored in real time at room temperature. Kinetic analysis was performed to calculate KD and half-life of antigen/antibody complex dissociation (Table 10). For those antibodies where no T_{1/2} value is shown, steady state analysis was used to calculate the KD value. NB: no binding observed under current experimental conditions. ND: not determined.

Kd [nM] | T1/2 [min] | Binder
61.7 | 7.7 | B1
126 | 3.5 | B2
128 | 7.3 | B3
151 | 8.1 | B4

Molecular target: T2, Peptide A (human PAR-2), unbiotinylated
Experiment: SPR, antibody captured
Method: as §1

Kd [nM] | T1/2 [min] | Binder
4.47 | 60.8 | B1
9.62 | 6.7 | B2
3.75 | 51.3 | B3
4.22 | 42.7 | B4

Molecular target: T8, full length human PAR-2
Experiment: cell ELISA, 10 ug/ml antibody
Source text: HEK293 cells were transfected with an NF-κB-luciferase-IRES-eGFP reporter plasmid. […] A clonal cell line, named D9, having low background levels of luciferase activity and high levels of eGFP when induced with IL-1β was made by a series of successive sorts of cell populations using flow cytometry. The 293/D9 cell line was then separately transfected with human PAR-2 or mouse PAR-2 to create the stable cell lines 293/D9/h PAR-2rec and 293/D9/m PAR-2rec, respectively.
Binding of anti-PAR-2 antibodies to 293/D9/hPAR-2rec cells was determined by ELISA. 293/D9 and 293/D9/hPAR-2rec cells were plated at a density of 5×10⁴ cells/well in media and incubated overnight at 37° C. and 5% CO₂. Purified antibody was added to the cells to a final concentration of 10 μg/ml and incubated at room temperature for one hour. Cells were then fixed and washed before detection of bound antibodies with HRP conjugated anti-mouse IgG and developed by standard colorimetric response using TMB substrate. Absorbance was read at OD₄₅₀ for 0.1 second.

A450 ratio (293/D9/hPAR-2rec to 293/D9 cells) | Binder
1.81 | B5
2.5 | B1
2.44 | B2
2.03 | B3
2.25 | B4

Molecular target: T3, Peptide C (human PAR-2), C-terminal …
Experiment: peptide ELISA
Method: (§2) Anti-PAR-2 antibodies were tested for their ability to bind to the PAR-2 peptides. Various PAR-2 Peptides (Table 3) were coated onto 96-well plates at a concentration of 2 μg/ml and incubated overnight followed by blocking in a suitable blocking agent for one hour. […] Purified anti-PAR-2 antibodies were added to the plate coated with PAR-2 peptides to a final concentration ranging from 0.2 to 2.0 μg/ml and incubated for one hour at room temperature. Detection of bound antibodies was determined with Horse-Radish Peroxidase (HRP) conjugated anti-mouse or human IgG (Jackson Immuno Research Lab, West Grove, Pa.) and developed by standard colorimetric response using tetramethylbenzidine (TMB) substrate. Absorbance was read at OD₄₅₀ for 0.1 second.

OD450 [od] | Binder
0 to 0.09 | B5
0 to 0.09 | B1
0 to 0.09 | B2
0 to 0.09 | B3
0 to 0.09 | B4

Molecular target: T4, Peptide A (human PAR-2), N-terminal …
Experiment: peptide ELISA
Method: as §2

OD450 [od] | Binder
1 to 4 | B5
1 to 4 | B1
1 to 4 | B2
1 to 4 | B3
1 to 4 | B4

Molecular target: T5, Peptide C (human PAR-2), N-terminal …
Experiment: peptide ELISA
Method: as §2

OD450 [od] | Binder
0 to 0.09 | B5
0 to 0.09 | B1
0 to 0.09 | B2
0 to 0.09 | B3
0 to 0.09 | B4

Molecular target: T6, Peptide B (human PAR-2), C-terminal …
Experiment: peptide ELISA
Method: as §2

OD450 [od] | Binder
0 to 0.09 | B5
1 to 4 | B1
1 to 4 | B2
1 to 4 | B3
1 to 4 | B4

Molecular target: T7, Peptide B (human PAR-2), N-terminal …
Experiment: peptide ELISA
Method: as §2

OD450 [od] | Binder
0 to 0.09 | B5
1 to 4 | B1
1 to 4 | B2
1 to 4 | B3
1 to 4 | B4

Molecular target: T1, Peptide B (human PAR-2), unbiotinylated
Experiment: peptide ELISA
Method: as §2

OD450 [od] | Binder
0 to 0.09 | B5
1 to 4 | B1
1 to 4 | B2
1 to 4 | B3
1 to 4 | B4

Molecular target: T9, Peptide A (human PAR-2), C-terminal biotinylated (Human, C-terminal biotin via G4S linker)
T9 construct: also called Peptide A C-Term
Experiment: peptide ELISA
Method: as §2

OD450 [od] | Binder
1 to 4 | B5
1 to 4 | B1
1 to 4 | B2
1 to 4 | B3
1 to 4 | B4

Molecular target: T2, Peptide A (human PAR-2), unbiotinylated
Experiment: peptide ELISA
Method: as §2

OD450 [od] | Binder
1 to 4 | B5
1 to 4 | B1
1 to 4 | B2
1 to 4 | B3
1 to 4 | B4

Molecular target: T6, Peptide B (human PAR-2), C-terminal …
Experiment: SPR, peptide immobilized
Method: (§3) In another series of experiments, equilibrium dissociation constants (KD values) for purified antibody binding to selected biotinylated and unbiotinylated forms of PAR-2 peptides were determined by surface kinetics using a real-time surface plasmon resonance biosensor assay. Neutravidin (Pierce, Rockford, Ill.) was covalently coupled to the surface of a Biacore™ C1 chip or CM5 chip using amine coupling chemistry. Biotinylated (N-Term or C-Term) PAR-2 peptides (Peptides A and B) were immobilized on the surface via the high affinity binding interaction between biotin and the amine coupled Neutravidin.
(§4) In a first experiment using this format, varying concentrations (ranging from 5 to 100 μg/ml) of purified antibody were injected at a rate of 50 μl/min over a surface coated with immobilized peptide at low-density (<1RU) for 300 seconds. Antibody-peptide binding and dissociation was monitored in real time 25° C.

Kd [nM] | T1/2 [min] | Binder | binding result
 |  | B5 | no binding (tested: 5 to 100 ug/ml antibody)
1.49 | 140 | B1 | 
2.32 | 60 | B2 | 
1.82 | 94 | B4 | 

Molecular target: T9, Peptide A (human PAR-2), C-terminal …
Experiment: SPR, peptide immobilized
Method: as §3, §4

Kd [nM] | T1/2 [min] | Binder
1.27 | 13 | B5
0.826 | 169 | B1
1.8 | 79 | B2
0.545 | 209 | B4

Molecular target: T2, Peptide A (human PAR-2), unbiotinylated
Experiment: SPR, antibody captured, steady state
Method: as §1

Kd [nM] | Binder
173 | B5
